Test results as given in patent US20260263566A1 (REALTA, published 2026).
Ends that are not written are not given here. dPEG24 = 24 PEG moieties, at the C-terminus

Biological target: T1, Human neutrophil myeloperoxidase (MPO), purified (human, UniProt P05164 165-745, limits assumed)
T1 sequence (looked up): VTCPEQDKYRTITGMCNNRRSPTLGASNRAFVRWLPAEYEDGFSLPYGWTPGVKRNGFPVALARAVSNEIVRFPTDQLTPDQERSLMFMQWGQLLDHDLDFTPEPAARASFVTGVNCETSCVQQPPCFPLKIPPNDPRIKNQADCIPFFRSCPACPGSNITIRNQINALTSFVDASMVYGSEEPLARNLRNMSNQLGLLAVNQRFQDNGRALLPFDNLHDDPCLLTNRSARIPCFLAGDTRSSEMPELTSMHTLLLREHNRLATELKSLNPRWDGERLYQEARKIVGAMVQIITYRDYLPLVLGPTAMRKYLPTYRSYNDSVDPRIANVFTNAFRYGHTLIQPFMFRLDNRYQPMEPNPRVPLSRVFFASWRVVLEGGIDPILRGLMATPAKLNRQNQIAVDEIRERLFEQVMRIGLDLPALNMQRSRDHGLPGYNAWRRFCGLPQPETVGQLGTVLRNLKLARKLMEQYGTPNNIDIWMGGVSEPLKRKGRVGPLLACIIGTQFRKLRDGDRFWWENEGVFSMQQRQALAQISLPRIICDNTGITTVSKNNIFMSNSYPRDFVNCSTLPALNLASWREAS
Assay: cell-based or functional assay

## IALILEPICCQERAA-dPEG24 (cysteine pairing not given here) [PA-dPEG24 (IALILEPICCQERAA-dPEG24)]
  peroxidase activity by TMB in peritoneal wash supernatant (rat; 0.1 mg purified MPO IP, then 20 mg PA-dPEG24 IP, 2 hours): 5 fold decrease
